Assay results from paper doi:10.1101/2025.11.06.687086.

Molecular target: A/Solomon Islands/3/2006 (H1N1) HA (influenza A virus A/Solomon Islands/3/2006 (H1N1))
Assay: cryo-EM structure

A/Solomon Islands/3/2006 (H1N1) HA (natural protein)
stoichiometry N: 3
